Legend:
[1] = ICV injection, food intake in 24-h fasted rats (studies 1a, 2a); type: in vivo, rat; settings: study 1a; 3 nmol ICV; 24-h fasted rats; vs saline
Description: (§1) Animals had permanent stainless steel guide cannulas (Plastics One, Roanoke, Va.) stereotactically implanted ICV or iPVN.

[2] = iPVN injection, food intake in 24-h fasted rats (studies 1b, 2b); type: in vivo, rat; settings: study 1b; iPVN; OXM, GLP-1 (3 nmol [sic]), exendin-4 0.03 nmol, glicentin, glucagon 1 nmol, SP-1 3 nmol; fasted rats
Protocol: as §1
Therefore, exendin-4 was injected iPVN at a dose of 0.03 nmol.

B1: glicentin (peptide, UniProt P01275 21-89, looked up)
Glicentin: RSLQDTEEKSRSFSASQADPLSDPDQMNEDKRHSQGTFTSDYSKYLDSRRAQDFVQWLMNTKRNRNNIA
modifications: Glicentin
notes: proglucagon-derived peptide purchased from Peninsula Laboratories
refeeding (food intake) after ICV injection [1]: failed to affect food intake at any time point
refeeding (food intake) after iPVN injection [2]: failed to affect food intake at any time point

Source: patent US7666835B2 (Imperial Innovations Limited, priority 2001, dated 2010)
